From patent publication US20090208995

How the values were obtained:
[1] = tested on: Pro-CE derived from a horseshoe crab hemocyte extract (DS-10AII fraction)
[2] = tested on: T1, recombinant Pro-CE (pro-clotting enzyme, His-Tag at the C-terminus, expressed in expresSF+ insect cells)
T1 sequence: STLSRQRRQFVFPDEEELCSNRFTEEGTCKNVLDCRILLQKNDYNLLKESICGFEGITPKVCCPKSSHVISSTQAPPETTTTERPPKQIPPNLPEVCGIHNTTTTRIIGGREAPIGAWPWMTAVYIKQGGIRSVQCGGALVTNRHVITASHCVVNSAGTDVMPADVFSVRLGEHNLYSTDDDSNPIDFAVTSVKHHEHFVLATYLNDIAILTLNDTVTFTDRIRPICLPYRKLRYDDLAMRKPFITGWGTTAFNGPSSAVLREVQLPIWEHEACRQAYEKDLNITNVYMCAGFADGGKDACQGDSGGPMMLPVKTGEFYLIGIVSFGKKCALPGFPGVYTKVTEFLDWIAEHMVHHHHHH

[3] = target: T2, recombinant Pro-CE (pro-clotting enzyme, His-Tag at the C-terminus, expressed in expresSF+ insect cells)
T2 chain: T1 sequence

[4] = target: T3, recombinant factor B (His-Tag at the C-terminus; culture supernatant, MOI = 0.1, 96 h)
T3 chain: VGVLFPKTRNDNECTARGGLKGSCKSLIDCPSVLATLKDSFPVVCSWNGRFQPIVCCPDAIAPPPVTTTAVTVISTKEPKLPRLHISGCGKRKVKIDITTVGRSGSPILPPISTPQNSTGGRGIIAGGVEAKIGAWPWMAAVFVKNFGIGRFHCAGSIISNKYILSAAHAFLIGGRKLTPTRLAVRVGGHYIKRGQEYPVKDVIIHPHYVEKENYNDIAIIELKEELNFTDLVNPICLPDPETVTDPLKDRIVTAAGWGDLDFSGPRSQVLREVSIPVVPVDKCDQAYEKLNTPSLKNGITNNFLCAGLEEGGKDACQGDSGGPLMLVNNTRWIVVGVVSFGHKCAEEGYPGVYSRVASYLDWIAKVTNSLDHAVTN

Factor G derived from a horseshoe crab hemocyte extract (DS-3GII fraction)
Reactivity, Average; CSBG 0 ng/mL (A 405 to 492 nm) [1]: 0.058 | Reactivity, Average; CSBG 1 ng/mL (A 405 to 492 nm) [1]: 0.437 | Reactivity, Average; CSBG 10 ng/mL (A 405 to 492 nm) [1]: 0.986 | Reactivity, endpoint assay, Boc-Leu-Gly-Arg-pNA; CSBG 0 ng/mL, first reading (A 405 to 492 nm) [1]: 0.056 | Reactivity, endpoint assay, Boc-Leu-Gly-Arg-pNA; CSBG 0 ng/mL, second reading (A 405 to 492 nm) [1]: 0.06 | Reactivity, endpoint assay, Boc-Leu-Gly-Arg-pNA; CSBG 1 ng/mL, first reading (A 405 to 492 nm) [1]: 0.44 | Reactivity, endpoint assay, Boc-Leu-Gly-Arg-pNA; CSBG 1 ng/mL, second reading (A 405 to 492 nm) [1]: 0.434 | Reactivity, endpoint assay, Boc-Leu-Gly-Arg-pNA; CSBG 10 ng/mL, first reading (A 405 to 492 nm) [1]: 0.969 | Reactivity, endpoint assay, Boc-Leu-Gly-Arg-pNA; CSBG 10 ng/mL, second reading (A 405 to 492 nm) [1]: 1 | Reactivity, ΔA; CSBG 1 ng/mL (A 405 to 492 nm) [1]: 0.379 | Reactivity, ΔA; CSBG 10 ng/mL (A 405 to 492 nm) [1]: 0.928 | Reactivity, Average; CSBG 0 ng/mL (A 405 to 492 nm) [2]: 0.05 | Reactivity, Average; CSBG 1 ng/mL (A 405 to 492 nm) [2]: 0.484 | Reactivity, Average; CSBG 10 ng/mL (A 405 to 492 nm) [2]: 0.987 | Reactivity, endpoint assay, Boc-Leu-Gly-Arg-pNA; CSBG 0 ng/mL, first reading (A 405 to 492 nm) [2]: 0.051 | Reactivity, endpoint assay, Boc-Leu-Gly-Arg-pNA; CSBG 0 ng/mL, second reading (A 405 to 492 nm) [2]: 0.049 | Reactivity, endpoint assay, Boc-Leu-Gly-Arg-pNA; CSBG 1 ng/mL, first reading (A 405 to 492 nm) [2]: 0.48 | Reactivity, endpoint assay, Boc-Leu-Gly-Arg-pNA; CSBG 1 ng/mL, second reading (A 405 to 492 nm) [2]: 0.487 | Reactivity, endpoint assay, Boc-Leu-Gly-Arg-pNA; CSBG 10 ng/mL, first reading (A 405 to 492 nm) [2]: 0.988 | Reactivity, endpoint assay, Boc-Leu-Gly-Arg-pNA; CSBG 10 ng/mL, second reading (A 405 to 492 nm) [2]: 0.986 | Reactivity, ΔA; CSBG 1 ng/mL (A 405 to 492 nm) [2]: 0.434 | Reactivity, ΔA; CSBG 10 ng/mL (A 405 to 492 nm) [2]: 0.937 | enzymatic activity with DS-3GII fraction and BG [2]: the recombinant Pro-CE exhibited an enzymatic activity almost equivalent to that of Pro-CE derived from a horseshoe crab hemocyte extract

recombinant factor G (culture supernatant; alpha-subunit:beta-subunit = 2:1)
Reactivity, Average; CSBG 0 ng/mL [2]: 0.078 | Reactivity, Average; CSBG 1 ng/mL [2]: 0.139 | Reactivity, Average; CSBG 10 ng/mL [2]: 0.532 | Reactivity, endpoint assay, Boc-Leu-Gly-Arg-pNA; CSBG 0 ng/mL, first reading [2]: 0.079 | Reactivity, endpoint assay, Boc-Leu-Gly-Arg-pNA; CSBG 0 ng/mL, second reading [2]: 0.076 | Reactivity, endpoint assay, Boc-Leu-Gly-Arg-pNA; CSBG 1 ng/mL, first reading [2]: 0.14 | Reactivity, endpoint assay, Boc-Leu-Gly-Arg-pNA; CSBG 1 ng/mL, second reading [2]: 0.138 | Reactivity, endpoint assay, Boc-Leu-Gly-Arg-pNA; CSBG 10 ng/mL, first reading [2]: 0.543 | Reactivity, endpoint assay, Boc-Leu-Gly-Arg-pNA; CSBG 10 ng/mL, second reading [2]: 0.52 | Reactivity, ΔA; CSBG 1 ng/mL [2]: 0.061 | Reactivity, ΔA; CSBG 10 ng/mL [2]: 0.454 | hydrolysis of Boc-Leu-Gly-Arg-pNA in the complete reconstitution system with BG [2]: the same enzymatic activity as that of native factor LAL was found to be expressed

B1: recombinant factor C (derived from Tachypleus rotundicauda), commercial element of PyroGene (product of Cambrex) (protein)
chain: KGVDLGLCDETRFECKCGDPGYVFNIPVKQCTYFYRWRPYCKPCDDLEAKDICPKYKRCQECKAGLDSCVTCPPNKYGTWCSGECQCKNGGICDQRTGACACRDRYEGVHCEILKGCPLLPSDSQVQEVRNPPDNPQTIDYSCSPGFKLKGMARISCLPNGQWSNFPPKCIRECAMVSSPEHGKVNALSGDMIEGATLRFSCDSPYYLIGQETLTCQGNGQWNGQIPQCKNLVFCPDLDPVNHAEHKVKIGVEQKYGQFPQGTEVTYTCSGNYFLMGFDTLKCNPDGSWSGSQPSCVKVADREVDCDSKAVDFLDDVGEPVRIHCPAGCSLTAGTVWGTAIYHELSSVCRAAIHAGKLPNSGGAVHVVNNGPYSDFLGSDLNGIKSEELKSLARSFRFDYVRSSTAGKSGCPDGWFEVDENCVYVTSKQRAWERAQGVCTNMAARLAVLDKDVIPNSLTETLRGKGLTTTWIGLHRLDAEKPFIWELMDRSNVVLNDNLTFWASGEPGNETNCVYMDIQDQLQSVWKTKSCFQPSSFACMMDLSDRNKAKCDDPGSLENGHATLHGQSIDGFYAGSSIRYSCEVLHYLSGTETVTCTTNGTWSAPKPRCIKVITCQNPPVPSYGSVEIKPPSRTNSISRVGSPFLRLPRLPLPLARAAKPPPKPRSSQPSTVDLASKVKLPEGHYRVGSRAIYTCESRYYELLGSQGRRCDSNGNWSGRPASCIPVCGRSDSPRSPFIWNGNSTEIGQWPWQAGISRWLADHNMWFLQCGGSLLNEKWIVTAAHCVTYSATAEIIDPNQFKMYLGKYYRDDSRDDDYVQVREALEIHVNPNYDPGNLNFDIALIQLKTPVTLTTRVQPICLPTDITTREHLKEGTLAVVTGWGLNENNTYSETIQQAVLPVVAASTCEEGYKEADLPLTVTENMFCAGYKKGRYDACSGDSGGPLVFADDSRTERRWVLEGIVSWGSPSGCGKANQYGGFTKVNVFLSWIRQFI
Reactivity, Av.; sample (C) PCE + FC, Et 0 ng/mL (A405 to 492 nm) [3]: 0.02 | Reactivity, Av.; sample (C) PCE + FC, Et 100 ng/mL (A405 to 492 nm) [3]: 0.03 | Reactivity; sample (C) PCE + FC, Et 0 ng/mL, first reading (A405 to 492 nm) [3]: 0.02 | Reactivity; sample (C) PCE + FC, Et 0 ng/mL, second reading (A405 to 492 nm) [3]: 0.02 | Reactivity; sample (C) PCE + FC, Et 100 ng/mL, first reading (A405 to 492 nm) [3]: 0.029 | Reactivity; sample (C) PCE + FC, Et 100 ng/mL, second reading (A405 to 492 nm) [3]: 0.03 | Reactivity, Av.; sample (D) FB + FC, Et 0 ng/mL (A405 to 492 nm) [4]: 0.025 | Reactivity, Av.; sample (D) FB + FC, Et 100 ng/mL (A405 to 492 nm) [4]: 0.033 | Reactivity; sample (D) FB + FC, Et 0 ng/mL, first reading (A405 to 492 nm) [4]: 0.024 | Reactivity; sample (D) FB + FC, Et 0 ng/mL, second reading (A405 to 492 nm) [4]: 0.025 | Reactivity; sample (D) FB + FC, Et 100 ng/mL, first reading (A405 to 492 nm) [4]: 0.032 | Reactivity; sample (D) FB + FC, Et 100 ng/mL, second reading (A405 to 492 nm) [4]: 0.034 | hydrolysis of Boc-Leu-Gly-Arg-pNA in the complete reconstitution system with Et (Pro-CE also present) [4]: cascade reaction of Et proceeds in a concentration-dependent manner through employment of recombinant factors C and B and recombinant Pro-CE in combination

B2: recombinant factor B (His-Tag at the C-terminus; culture supernatant, MOI = 0.1, 96 h) (protein)
chain: T3 chain
Reactivity, Av.; sample (A) PCE + FB + FC (factor C also present), Et 0 ng/mL (A405 to 492 nm) [3]: 0.023 | Reactivity, Av.; sample (A) PCE + FB + FC (factor C also present), Et 100 ng/mL (A405 to 492 nm) [3]: 0.649 | Reactivity, Av.; sample (B) PCE + FB, Et 0 ng/mL (A405 to 492 nm) [3]: 0.023 | Reactivity, Av.; sample (B) PCE + FB, Et 100 ng/mL (A405 to 492 nm) [3]: 0.023 | Reactivity; sample (A) PCE + FB + FC (factor C also present), Et 0 ng/mL, first reading (A405 to 492 nm) [3]: 0.024 | Reactivity; sample (A) PCE + FB + FC (factor C also present), Et 0 ng/mL, second reading (A405 to 492 nm) [3]: 0.022 | Reactivity; sample (A) PCE + FB + FC (factor C also present), Et 100 ng/mL, first reading (A405 to 492 nm) [3]: 0.652 | Reactivity; sample (A) PCE + FB + FC (factor C also present), Et 100 ng/mL, second reading (A405 to 492 nm) [3]: 0.645 | Reactivity; sample (B) PCE + FB, Et 0 ng/mL, first reading (A405 to 492 nm) [3]: 0.023 | Reactivity; sample (B) PCE + FB, Et 0 ng/mL, second reading (A405 to 492 nm) [3]: 0.022 | Reactivity; sample (B) PCE + FB, Et 100 ng/mL, first reading (A405 to 492 nm) [3]: 0.022 | Reactivity; sample (B) PCE + FB, Et 100 ng/mL, second reading (A405 to 492 nm) [3]: 0.023 | hydrolysis of Boc-Leu-Gly-Arg-pNA in the complete reconstitution system with Et (factor C also present) [3]: cascade reaction of Et proceeds in a concentration-dependent manner through employment of recombinant factors C and B and recombinant Pro-CE in combination | hydrolysis of Boc-Leu-Gly-Arg-pNA in the presence of Et at high concentration, without factor C [3]: in the samples containing recombinant Pro-CE and/or recombinant factor B, activation attributed to high concentration Et was not observed
